Assay results: patent US20250277199, “NOVEL CRISPR-CAS NUCLEASES FROM METAGENOMES” (Brain Biotech AG, published 2025)

Target: T1, BMC02 (uncultured bacterium (metagenome))
T1 chain: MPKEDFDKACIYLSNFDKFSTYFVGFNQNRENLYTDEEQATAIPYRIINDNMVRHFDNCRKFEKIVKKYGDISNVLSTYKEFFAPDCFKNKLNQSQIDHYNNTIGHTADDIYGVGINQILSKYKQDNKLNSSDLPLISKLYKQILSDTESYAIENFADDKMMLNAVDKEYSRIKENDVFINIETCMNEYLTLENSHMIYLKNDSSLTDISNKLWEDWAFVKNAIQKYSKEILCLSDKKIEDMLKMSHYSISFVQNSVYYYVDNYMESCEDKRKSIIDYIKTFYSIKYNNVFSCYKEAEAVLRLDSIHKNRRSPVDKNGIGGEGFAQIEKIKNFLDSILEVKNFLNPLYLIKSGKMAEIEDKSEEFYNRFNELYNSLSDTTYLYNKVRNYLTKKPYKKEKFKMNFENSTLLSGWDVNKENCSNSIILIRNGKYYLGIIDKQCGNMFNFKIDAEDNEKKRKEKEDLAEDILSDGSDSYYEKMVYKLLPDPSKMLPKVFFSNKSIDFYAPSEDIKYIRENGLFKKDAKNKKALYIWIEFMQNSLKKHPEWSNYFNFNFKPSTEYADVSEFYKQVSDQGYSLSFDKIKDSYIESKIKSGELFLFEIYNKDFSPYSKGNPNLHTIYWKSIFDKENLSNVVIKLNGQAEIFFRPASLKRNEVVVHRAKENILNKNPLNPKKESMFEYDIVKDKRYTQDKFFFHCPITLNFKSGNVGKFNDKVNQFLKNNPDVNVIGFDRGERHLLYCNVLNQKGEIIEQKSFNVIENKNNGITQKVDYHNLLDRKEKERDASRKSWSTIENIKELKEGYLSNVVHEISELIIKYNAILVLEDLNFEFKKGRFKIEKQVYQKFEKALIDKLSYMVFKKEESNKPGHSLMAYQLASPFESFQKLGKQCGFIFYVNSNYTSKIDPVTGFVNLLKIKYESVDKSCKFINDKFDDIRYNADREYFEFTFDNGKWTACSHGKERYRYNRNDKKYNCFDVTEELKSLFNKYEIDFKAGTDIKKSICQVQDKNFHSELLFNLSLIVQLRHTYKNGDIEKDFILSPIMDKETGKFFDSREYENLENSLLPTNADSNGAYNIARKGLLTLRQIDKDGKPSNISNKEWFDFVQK
Assay: cell_activity; PAM not stated; E. coli depletion, 30 C
In short: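 E. coli carrying arabinose-induced (0.2%) BMC nuclease, grown at 30° C., made electrocompetent and electroporated with 50-100 ng plasmid carrying gRNA against malQ. Transformants plated on selective M9-glucose agar with kanamycin/ampicillin (± nourseothricin), and growth scored after 48 h at 30° C.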

B1: malQ gRNA (BMC stem-loop + 24 nt spacer) ; malQ protospacer (ssRNA ; dsDNA)
RNA: GAUUUCUACUAUUGUAGAUGUGGCGGUACGUUGAUGCAUCGCG
DNA 1: GTGGCGGTACGTTGATGCATCGCG
DNA 2: CGCGATGCATCAACGTACCGCCAC
- activity: > 99.9 % colony reduction
